Laboratory results taken from article PMC10185811.

Legend:
GST-NUB1L, Q9Y5A7-1 = assay: Octet (BLI); conditions: GST-NUB1L on the sensor; His6-RPN1 variant in solution; parent: est. 0.58; read off a plot
GST-RAD23 = GST-RAD23 (UniProt P54727); assay: Octet (BLI); conditions: GST-RAD23 on the sensor; GST control curve in the same panel reaches est. 0.21 nm (above the T1 curve); read off a plot
His6-RPN1 WT (human) = His6-RPN1 WT (human) (UniProt Q13200); assay: BLI; Octet; His6-RPN1 loaded on the nickel sensor; NUB1L, GST-FAT10, NUB1L with GST-FAT10 or NUB1L with GST in solution; Octet buffer (PBS, 0.1% Triton X-100, 1x ROTIBlock); 1:1 binding model

His6-RPN1 WT, sequence (Q13200 whole entry, change not shown): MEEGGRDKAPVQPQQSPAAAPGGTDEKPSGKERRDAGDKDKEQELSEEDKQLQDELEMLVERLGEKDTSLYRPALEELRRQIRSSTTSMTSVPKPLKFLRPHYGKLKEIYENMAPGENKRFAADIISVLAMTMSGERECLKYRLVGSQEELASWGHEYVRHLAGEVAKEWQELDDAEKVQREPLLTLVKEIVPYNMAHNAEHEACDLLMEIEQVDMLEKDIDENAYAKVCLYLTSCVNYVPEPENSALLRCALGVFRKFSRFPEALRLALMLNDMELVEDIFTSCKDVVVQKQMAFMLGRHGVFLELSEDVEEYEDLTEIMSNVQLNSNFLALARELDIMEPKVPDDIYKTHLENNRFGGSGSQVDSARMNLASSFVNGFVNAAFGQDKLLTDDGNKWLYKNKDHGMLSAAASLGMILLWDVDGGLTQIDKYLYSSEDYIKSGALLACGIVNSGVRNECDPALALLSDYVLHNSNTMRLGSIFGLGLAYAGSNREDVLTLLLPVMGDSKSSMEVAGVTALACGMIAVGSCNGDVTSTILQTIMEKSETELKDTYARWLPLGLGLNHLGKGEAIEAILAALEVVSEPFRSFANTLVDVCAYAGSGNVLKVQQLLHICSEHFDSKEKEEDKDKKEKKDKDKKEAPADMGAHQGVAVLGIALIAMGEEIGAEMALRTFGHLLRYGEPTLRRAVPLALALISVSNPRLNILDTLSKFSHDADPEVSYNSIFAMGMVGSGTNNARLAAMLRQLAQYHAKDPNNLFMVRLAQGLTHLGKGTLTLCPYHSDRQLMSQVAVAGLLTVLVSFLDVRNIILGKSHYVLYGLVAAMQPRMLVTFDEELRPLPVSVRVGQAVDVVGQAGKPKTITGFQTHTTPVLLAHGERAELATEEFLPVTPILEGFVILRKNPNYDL
GST-NUB1L, Q9Y5A7-1, sequence (Q9Y5A7 whole entry): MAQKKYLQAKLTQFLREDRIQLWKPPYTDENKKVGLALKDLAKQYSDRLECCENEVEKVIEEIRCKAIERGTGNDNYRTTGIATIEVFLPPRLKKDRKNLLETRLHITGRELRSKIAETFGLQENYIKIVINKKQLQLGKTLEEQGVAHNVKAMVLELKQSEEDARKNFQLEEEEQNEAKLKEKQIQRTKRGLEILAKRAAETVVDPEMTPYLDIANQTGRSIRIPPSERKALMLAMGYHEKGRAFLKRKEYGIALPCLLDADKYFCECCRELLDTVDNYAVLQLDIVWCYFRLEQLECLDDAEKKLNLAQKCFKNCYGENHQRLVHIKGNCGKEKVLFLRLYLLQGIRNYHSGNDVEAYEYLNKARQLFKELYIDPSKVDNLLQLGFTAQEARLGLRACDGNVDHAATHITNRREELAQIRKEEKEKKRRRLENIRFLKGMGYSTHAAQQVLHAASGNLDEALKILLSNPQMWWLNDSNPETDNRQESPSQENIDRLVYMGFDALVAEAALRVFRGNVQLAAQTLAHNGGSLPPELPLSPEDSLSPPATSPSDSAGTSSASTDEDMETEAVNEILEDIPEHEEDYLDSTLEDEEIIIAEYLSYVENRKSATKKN
NUB1L-bound GST-FAT10 (NUB1L co-incubated with GST-FAT10), sequence (Q9Y5A7 whole entry): as above
NUB1L-bound GST-FAT10 (NUB1L co-incubated with GST-FAT10), sequence (O15205 whole entry): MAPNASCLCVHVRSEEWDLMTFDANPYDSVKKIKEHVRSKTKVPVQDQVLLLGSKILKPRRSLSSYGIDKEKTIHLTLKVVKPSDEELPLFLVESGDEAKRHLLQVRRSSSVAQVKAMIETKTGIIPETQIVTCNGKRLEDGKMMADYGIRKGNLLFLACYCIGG
GST-RAD23, sequence (P54727 whole entry): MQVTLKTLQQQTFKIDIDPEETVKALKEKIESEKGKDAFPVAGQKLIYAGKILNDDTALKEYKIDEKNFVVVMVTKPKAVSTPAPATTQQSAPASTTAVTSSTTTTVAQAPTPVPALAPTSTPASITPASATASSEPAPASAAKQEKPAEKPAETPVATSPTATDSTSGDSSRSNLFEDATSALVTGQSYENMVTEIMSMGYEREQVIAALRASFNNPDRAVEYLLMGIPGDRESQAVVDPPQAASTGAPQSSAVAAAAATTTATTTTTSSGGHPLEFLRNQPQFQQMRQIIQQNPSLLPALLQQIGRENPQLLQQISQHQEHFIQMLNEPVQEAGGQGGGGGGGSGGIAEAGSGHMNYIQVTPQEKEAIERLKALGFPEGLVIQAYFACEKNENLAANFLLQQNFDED

Substance: His6-RPN1 WT (from UniProt Q13200) T1
- response (GST-NUB1L, Q9Y5A7-1): 0.37 nm
- response (GST-RAD23): 0.19 nm

Substance: NUB1L-bound GST-FAT10 (NUB1L co-incubated with GST-FAT10) (from UniProt Q9Y5A7-1 1-615; O15205 1-165) (complex)
- fold increase of the affinity for RPN1 against NUB1L alone (His6-RPN1 WT (human)): 4 fold
